Measured values: patent US20180298070A1, “PEPTIDE COMPOUND” (Takeda Pharmaceutical Company Limited, published 2018)
Starred links: 1 amine or outer side, 2 acyl side, 3 side chain; linkers in the order of their positions; H or OH if unused. Non-standard residues stand in square brackets, D forms with d. Groups on a side chain read outwards from the residue. Primed or numbered codes have the meaning given here. No end group written: not given here. *: point of attachment. C20 diacid = O=C(O)CCCCCCCCCCCCCCCCCCC(=O)*; γGlu = O=C(O)[C@H](CCC(=O)[*:2])N[*:1]; NMeY = CN[C@@H](Cc1ccc(O)cc1)C(=O)O; Stearoyl = CCCCCCCCCCCCCCCCCC(=O)*; αMeF = C[C@](N)(Cc1ccccc1)C(=O)O; Lauroyl = CCCCCCCCCCCC(=O)*; dIva = CC[C@@](C)(N)C(=O)O; Iva = CC[C@](C)(N)C(=O)O; PEG2′ = not defined here; PEG3′ = not defined here; Aib = CC(C)(N)C(=O)O

Experiments:
[1] = target: T1, human GIPR (human), P48546
T1 chain: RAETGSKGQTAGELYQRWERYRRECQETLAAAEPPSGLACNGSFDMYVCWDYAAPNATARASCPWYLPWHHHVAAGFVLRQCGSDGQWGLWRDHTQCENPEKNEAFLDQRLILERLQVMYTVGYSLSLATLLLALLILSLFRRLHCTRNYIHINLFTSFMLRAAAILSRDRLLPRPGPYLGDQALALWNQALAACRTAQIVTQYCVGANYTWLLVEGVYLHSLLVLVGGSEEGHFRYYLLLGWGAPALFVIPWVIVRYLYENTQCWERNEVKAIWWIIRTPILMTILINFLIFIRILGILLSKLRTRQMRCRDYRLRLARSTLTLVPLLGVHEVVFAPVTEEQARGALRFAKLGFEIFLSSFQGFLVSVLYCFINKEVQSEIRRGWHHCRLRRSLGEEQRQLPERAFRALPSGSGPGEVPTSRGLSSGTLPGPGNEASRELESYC

[2] = target: T2, human GLP-1R (human), P43220
T2 chain: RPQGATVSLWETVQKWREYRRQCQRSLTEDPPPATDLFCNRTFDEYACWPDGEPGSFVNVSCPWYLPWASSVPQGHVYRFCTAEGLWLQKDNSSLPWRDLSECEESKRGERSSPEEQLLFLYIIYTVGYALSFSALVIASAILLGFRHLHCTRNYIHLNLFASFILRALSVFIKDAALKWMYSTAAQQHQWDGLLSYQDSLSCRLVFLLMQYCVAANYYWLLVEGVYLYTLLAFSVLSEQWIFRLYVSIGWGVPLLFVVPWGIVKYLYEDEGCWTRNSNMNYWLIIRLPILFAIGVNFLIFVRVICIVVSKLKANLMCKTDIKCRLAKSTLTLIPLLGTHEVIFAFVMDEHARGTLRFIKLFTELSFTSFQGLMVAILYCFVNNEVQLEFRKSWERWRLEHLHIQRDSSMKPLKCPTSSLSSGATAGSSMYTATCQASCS

[3] = target: T1, human GIPR (human), P48546; assay: [125I]GIP displacement, hGIPR VLP

B1: Compound 242 (peptide)
peptide: Y[Aib]EGTFISDYSK([PEG3′-PEG3′-γGlu-C20 diacid])ALDR[Aib]HQ[Aib]NFVNW[Iva]LAQRPSSGAPPPS
modifications: not fully specified (C-terminus); ends and bridges not checked
In the case of B1, the Agonist activity (EC50, M) [1] is reported as 6.7e-11 M and the Agonist activity (EC50, M) [2] is reported as over 1e-06 M.

B2: Compound 260 (peptide)
peptide: Y[Aib]EGTVVSLYSK([Gly-Gly-Gly-Gly-C20 diacid])[Aib]LDRQAQ[Aib]EFVK(Ac)WLLAQR
modifications: ends and bridges not checked
B2 was tested, and the Agonist activity (EC50, M) [1] was 2.6e-10 M, the Agonist activity (EC50, M) [2] was over 1e-06 M and the IC50 [3] was 15 nM.

B3: Compound 161 (peptide)
peptide: Y[Aib]EGTVVSLYSI[Aib]LDKQAQ[Aib]EFVKWLLAQKK(Pal)
modifications: ends and bridges not checked
Binder B3 has an Agonist activity (EC50, M) [2] of over 1e-06 M and an IC50 [3] of 24 nM.

B4: Compound 176 (peptide)
peptide: Y[Aib]EGTFISDYSK([PEG(2)-Stearoyl])ALDRIHQQDFVNWLLAQRPSSGAPPPS
modifications: ends and bridges not checked
With B4 the Agonist activity (EC50, M) [1] was 1.9e-11 M, the Agonist activity (EC50, M) [2] was over 1e-06 M and the IC50 [3] was 3.4 nM.

B5: Compound 233 (peptide)
peptide: Y[Aib]EGTFISDYSIALDRK([PEG(2)-Pal])HQQDFVNWLLAQRPSSGAPPPS
modifications: not fully specified (C-terminus); ends and bridges not checked
For B5, the Agonist activity (EC50, M) [1] was 3.8e-12 M and the Agonist activity (EC50, M) [2] was over 1e-06 M.

B6: Compound 99 (peptide)
peptide: [NMeY][Aib]EGTFISDYSI[dIva]LDRIAQ[Aib]N[αMeF]VNWLLAQRPSSGAPPPSR
modifications: ends and bridges not checked
Work on B6 yielded an Agonist activity (EC50, M) [1] of 2.9e-12 M, an Agonist activity (EC50, M) [2] of over 1e-06 M and an IC50 [3] of 2.1 nM.

B7: Compound 173 (peptide)
peptide: Y[Aib]EGTFISDYSK([PEG(2)-Ac])ALDRIHQQDFVNWLLAQRPSSGAPPPS
modifications: ends and bridges not checked
In the case of B7, the Agonist activity (EC50, M) [1] is reported as 4.4e-12 M, the Agonist activity (EC50, M) [2] is reported as over 1e-06 M and the IC50 [3] is reported as 7.1 nM.

B8: Compound 106 (peptide)
peptide: [NMeY][Aib]EGTFISDYSI[dIva]LDR[Aib]AQ[Aib]N[αMeF]VNWLLAQRPSSGAPPPSR
modifications: not fully specified (N-terminus, C-terminus); ends and bridges not checked
B8 showed an Agonist activity (EC50, M) [1] of 1.7e-12 M, an Agonist activity (EC50, M) [2] of over 1e-06 M and an IC50 [3] of 1.6 nM.

B9: Compound 124 (peptide)
peptide: [NMeY][Aib]EGTFISDYSIALDRIAQ[Aib]SFVNW[Iva]LAQRPSSGAPPPSR
modifications: not fully specified (N-terminus, C-terminus); ends and bridges not checked
In the case of B9, the Agonist activity (EC50, M) [1] is reported as 1.7e-12 M, the Agonist activity (EC50, M) [2] is reported as over 1e-06 M and the IC50 [3] is reported as 1.6 nM.

B10: Compound 177 (peptide)
peptide: Y[Aib]EGTFISDYSK([PEG(2)-Pal])ALDRIHQQDFVNWLLAQRPSSGAPPPSR
modifications: ends and bridges not checked
Binder B10 has an Agonist activity (EC50, M) [1] of 7.2e-12 M, an Agonist activity (EC50, M) [2] of over 1e-06 M and an IC50 [3] of 2.4 nM.

B11: Compound 224 (peptide)
peptide: Y[Aib]EGTFISDYSK([PEG(2)-Lauroyl])ALDR[Aib]HQQSFVNW[Iva]LAQRPSSGAPPPS
modifications: not fully specified (C-terminus); ends and bridges not checked
B11 was tested, and the Agonist activity (EC50, M) [1] was 4.2e-12 M and the Agonist activity (EC50, M) [2] was over 1e-06 M.

B12: Compound 163 (peptide)
peptide: Y[Aib]EGTVVSLYSI[Aib]LDKQAQ[Aib]EFVKWLLKGK(Pal)
modifications: ends and bridges not checked
B12 showed an Agonist activity (EC50, M) [1] of 6.6e-09 M, an Agonist activity (EC50, M) [2] of over 1e-06 M and an IC50 [3] of 50 nM.

B13: Compound 136 (peptide)
peptide: Me-Y[Aib]EGTFISDYSIALDRIAQ[Aib]SFVNWLLAQRPSSGAPPPSR
modifications: not fully specified (residue 1, C-terminus); ends and bridges not checked
B13 showed an Agonist activity (EC50, M) [1] of 2.2e-12 M, an Agonist activity (EC50, M) [2] of 2.1e-07 M and an IC50 [3] of 2.1 nM.

B14: Compound 134 (peptide)
peptide: Me-Y[Aib]EGTFISDYSIALDRIAQQN[αMeF]VNWLLAQRPSSGAPPPSR
modifications: not fully specified (residue 1, C-terminus); ends and bridges not checked
For B14, the Agonist activity (EC50, M) [1] was 2.3e-12 M, the Agonist activity (EC50, M) [2] was over 1e-06 M and the IC50 [3] was 1.2 nM.

B15: Compound 159 (peptide)
peptide: Y[Aib]EGTVVSLYSK(Pal)[Aib]LDKQAQ[Aib]EFVKWLLAQK
modifications: ends and bridges not checked
B15 was tested, and the Agonist activity (EC50, M) [1] was 7.8e-10 M, the Agonist activity (EC50, M) [2] was over 1e-06 M and the IC50 [3] was 8.1 nM.

B16: Compound 158 (peptide)
peptide: Y[Aib]EGTVVSLYSK([PEG(2)-Pal])[Aib]LDKQAQ[Aib]EFVKWLLAQK
modifications: ends and bridges not checked
With B16 the Agonist activity (EC50, M) [1] was 9.9e-11 M, the Agonist activity (EC50, M) [2] was over 1e-06 M and the IC50 [3] was 3.4 nM.

B17: Compound 137 (peptide)
peptide: Me-Y[Aib]EGTFISDYSIALDR[Aib]AQQSFVNWLLAQRPSSGAPPPSR
modifications: not fully specified (residue 1, C-terminus); ends and bridges not checked
Binder B17 has an Agonist activity (EC50, M) [1] of 1.7e-12 M, an Agonist activity (EC50, M) [2] of over 1e-06 M and an IC50 [3] of 0.98 nM.

B18: Compound 84 (peptide)
peptide: [NMeY][Aib]EGTFISDYSIALDR[Aib]AQ[Aib]NFVNW[Iva]LAQRPSSGAPPPSR
modifications: ends and bridges not checked
For B18, the Agonist activity (EC50, M) [1] was 1.2e-12 M and the IC50 [3] was 1.2 nM.

B19: Compound 152 (peptide)
peptide: Ac-Y[Aib]EGTFISDYSI[dIva]LDRIAQ[Aib]NFVNW[Iva]LAQRPSSGAPPPSR
modifications: ends and bridges not checked
B19 showed an Agonist activity (EC50, M) [1] of 2.8e-12 M, an Agonist activity (EC50, M) [2] of over 1e-06 M and an IC50 [3] of 2.1 nM.

B20: Compound 239 (peptide)
peptide: Y[Aib]EGTFISDYSIALDRK([PEG(2)-dodec])HQ[Aib]NFVNW[Iva]LAQRPSSGAPPPS
modifications: not fully specified (C-terminus); ends and bridges not checked
For B20, the Agonist activity (EC50, M) [1] was 2.5e-12 M and the Agonist activity (EC50, M) [2] was 5e-08 M.

B21: Compound 160 (peptide)
peptide: Y[Aib]EGTVVSLYSI[Aib]LDKQAQ[Aib]EFVKWLLAQKK([PEG(2)-Pal])
modifications: ends and bridges not checked
B21 showed an Agonist activity (EC50, M) [1] of 9.5e-11 M, an Agonist activity (EC50, M) [2] of over 1e-06 M and an IC50 [3] of 4.1 nM.

B22: Compound 178 (peptide)
peptide: Y[Aib]EGTFISDYSK([PEG2′-Ac])ALDRIHQQDFVNWLLAQRPSSGAPPPSR
modifications: ends and bridges not checked
With B22 the Agonist activity (EC50, M) [1] was 4.2e-12 M, the Agonist activity (EC50, M) [2] was over 1e-06 M and the IC50 [3] was 3 nM.
